Measurements reported in patent US20260009052, “CAS12 PROTEINS AND USES THEREOF” (GUANGZHOU REFORGENE MEDICINE CO., LTD., published 2026).

Key:
C12-279 Q186R (Mut-01) = molecular target: T1, C12-279 Q186R (Mut-01) (synthetic construct, Q186R); assay: cell_activity; PAM TTG; +/-0.32
T1 chain: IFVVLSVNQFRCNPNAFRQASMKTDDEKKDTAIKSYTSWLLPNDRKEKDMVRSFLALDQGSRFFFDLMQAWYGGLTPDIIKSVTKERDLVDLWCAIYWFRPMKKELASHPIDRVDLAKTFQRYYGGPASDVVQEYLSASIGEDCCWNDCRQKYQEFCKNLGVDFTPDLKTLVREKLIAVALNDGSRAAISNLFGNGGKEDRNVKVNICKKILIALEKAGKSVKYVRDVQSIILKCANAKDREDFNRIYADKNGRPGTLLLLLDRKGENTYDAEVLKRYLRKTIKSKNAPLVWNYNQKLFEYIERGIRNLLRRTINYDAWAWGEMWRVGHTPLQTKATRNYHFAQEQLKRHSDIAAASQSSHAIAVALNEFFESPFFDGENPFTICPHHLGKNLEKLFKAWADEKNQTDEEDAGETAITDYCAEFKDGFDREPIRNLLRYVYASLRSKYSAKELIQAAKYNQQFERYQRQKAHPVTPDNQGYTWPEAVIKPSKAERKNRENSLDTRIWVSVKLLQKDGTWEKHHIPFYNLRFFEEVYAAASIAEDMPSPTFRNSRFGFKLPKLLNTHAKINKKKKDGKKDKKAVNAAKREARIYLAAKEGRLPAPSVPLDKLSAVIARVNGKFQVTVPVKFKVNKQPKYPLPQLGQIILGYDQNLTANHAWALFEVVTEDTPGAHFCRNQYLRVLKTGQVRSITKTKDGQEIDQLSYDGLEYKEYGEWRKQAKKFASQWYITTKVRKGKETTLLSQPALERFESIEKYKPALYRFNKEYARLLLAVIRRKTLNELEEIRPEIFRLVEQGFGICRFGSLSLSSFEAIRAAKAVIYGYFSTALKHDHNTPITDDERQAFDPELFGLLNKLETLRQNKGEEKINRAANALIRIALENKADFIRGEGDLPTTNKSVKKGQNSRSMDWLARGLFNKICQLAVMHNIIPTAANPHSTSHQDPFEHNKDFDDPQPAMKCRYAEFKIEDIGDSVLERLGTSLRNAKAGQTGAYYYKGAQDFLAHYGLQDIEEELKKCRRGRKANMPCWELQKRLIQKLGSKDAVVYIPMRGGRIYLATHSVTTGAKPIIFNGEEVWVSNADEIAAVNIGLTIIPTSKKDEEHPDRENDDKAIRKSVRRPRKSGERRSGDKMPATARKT
Method: Transfection: transfection was performed 12-14 h after plating. 1.5 μL PEI (Yeasen Biotechnology, 40815ES03, Polyethylenimine Linear (PEI) MW25000) and 500 ng mutation clone plasmid were added to 100 μL Opti-MEM per well of the 24-well plate, mixed, and added to the NAAN cell line for cell transfection after placing at room temperature for 20 min. After overnight transfection, a fresh culture medium was replaced, and the culture was continued for 72 h, followed by flow cytometry. Editing efficiencies of different mutant clones were characterized by the proportion of GFP-positive cells.
Editing efficiency of some selected mutants was tested in Reporter3 cell line using the same manner as described for the NAAN reporter system, except that the cell line was changed from NAAN cell line to Reporter3 cell line.

[1] = molecular target: T2, C12-279 Mut-02-1-5-426-858-860 (synthetic construct, I1R,L5R,Q186R,D352R,D426R,858R,L860R); assay: cell_activity; PAM TTG
T2 chain: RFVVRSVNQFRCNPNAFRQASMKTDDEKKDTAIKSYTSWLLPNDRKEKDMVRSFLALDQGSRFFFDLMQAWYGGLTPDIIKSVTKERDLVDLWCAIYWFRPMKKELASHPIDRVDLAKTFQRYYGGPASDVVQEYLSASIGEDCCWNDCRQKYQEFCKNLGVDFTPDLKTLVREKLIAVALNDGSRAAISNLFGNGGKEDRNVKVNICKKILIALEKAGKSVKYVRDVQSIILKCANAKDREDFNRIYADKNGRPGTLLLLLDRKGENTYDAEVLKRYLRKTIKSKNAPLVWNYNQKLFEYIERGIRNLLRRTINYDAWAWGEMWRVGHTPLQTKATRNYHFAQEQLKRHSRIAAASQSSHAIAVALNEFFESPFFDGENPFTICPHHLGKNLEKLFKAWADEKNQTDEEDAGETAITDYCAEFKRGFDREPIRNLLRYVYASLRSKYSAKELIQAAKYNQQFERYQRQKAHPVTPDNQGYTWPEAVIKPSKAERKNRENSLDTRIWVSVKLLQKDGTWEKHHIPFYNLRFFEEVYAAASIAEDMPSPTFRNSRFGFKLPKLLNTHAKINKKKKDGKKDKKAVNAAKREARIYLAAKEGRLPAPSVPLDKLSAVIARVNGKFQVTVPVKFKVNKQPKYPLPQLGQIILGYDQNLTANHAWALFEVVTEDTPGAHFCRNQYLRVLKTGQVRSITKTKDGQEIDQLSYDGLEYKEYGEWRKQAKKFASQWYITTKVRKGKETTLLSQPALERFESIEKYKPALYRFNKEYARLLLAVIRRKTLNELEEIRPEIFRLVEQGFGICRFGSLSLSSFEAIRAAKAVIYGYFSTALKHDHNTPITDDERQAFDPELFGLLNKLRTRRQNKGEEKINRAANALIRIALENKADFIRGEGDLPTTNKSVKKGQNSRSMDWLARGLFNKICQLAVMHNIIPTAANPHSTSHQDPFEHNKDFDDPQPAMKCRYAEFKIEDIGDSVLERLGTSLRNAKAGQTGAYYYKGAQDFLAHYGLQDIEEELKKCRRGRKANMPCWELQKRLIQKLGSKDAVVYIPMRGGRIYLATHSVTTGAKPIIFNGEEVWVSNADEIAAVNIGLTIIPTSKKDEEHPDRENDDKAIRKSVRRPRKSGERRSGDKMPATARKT

B1: C12-279 Reporter3 sgRNA ; Reporter3 target (ssRNA ; dsDNA)
RNA: GUAAUGCGUCUCCCAUUGACGCCUCACCUCGCGACGCAAUGAUG
DNA 1: CTCACCTCGCGACGCAATGATG
DNA 2: CATCATTGCGTCGCGAGGTGAG
binding signal (C12-279 Q186R (Mut-01)): 1.6 fold of C12-279 | binding signal [1]: 3.77 fold of C12-279
